Positions count from the first letter of the chain named.
B1: 2/99 VH5/VL2 (antibody, V domains shown)
VH: QSMEETGGGLIQPGGSLRLSCAASGFSLSSYAMSWVRQAPGKGLEWVGYIWSGGSTDYADSVKGRFTISRDNSKNTLYLQMNSLRAEDTAVYYCARRYGTSYPDYGDANGFDPWGPGTLVTVSS
VL: DIQMTQSPSSLSASVGDRVTITCRASQSISSYLNWYQQKPGKAPKLLIYRASTLASGVPSRFSGSGSGTDFTLTISSLQPEDFATYYCQQSYSSSNVDNTFGGGTKVEIK
B2: 2/99 VH6/VL2 (antibody, V domains shown)
VH: B1 VH with S2Q, M3L, E4V, V47I, P116Q
VL: B1 VL
B3: 2/99 VH7/VL2 (antibody, V domains shown)
VH: B1 VH with S2Q, M3L, E4V, V47I, D60S, S61W, V62A, P116Q
VL: B1 VL
B4: 2/99 VH8/VL2 (antibody, V domains shown)
VH: QQLVETGGGLIQPGGSLRLSCAASGFSLSSYAMSWVRQAPGKGLEWIGYIWSGGSTDYASWAKGRFTISKTSTTLYLQMNSLRAEDTAVYYCARRYGTSYPDYGDANGFDPWGQGTLVTVSS
VL: B1 VL
B5: 2/99 VH11/VL2 (antibody, V domains shown)
VH: B1 VH with S2Q, M3L, E4L, T6S, I11V, P116Q
VL: B1 VL
B6: 2/99 VH12/VL2 (antibody, V domains shown)
VH: QVQLQESGPGLVKPSETLSLTCTVSGFSLSSYAMSWIRQPPGKGLEWIGYIWSGGSTDYNPSLKSRVTISVDTSKNQFSLKLSSVTAADTAVYYCARRYGTSYPDYGDANGFDPWGQGTLVTVSS
VL: B1 VL
B7: 2/99 VH13/VL2 (antibody, V domains shown)
VH: B6 VH with F78V
VL: B1 VL
B8: 2/99 VH15/VL2 (antibody, V domains shown)
VH: QQLQESGPGLVKPSETLSLTCTVSGFSLSSYAMSWVRQPPGKGLEWIGYIWSGGSTDYNPSLKSRVTISVDTSKNQVSLKLSSVTAADTAVYYCARRYGTSYPDYGDANGFDPWGQGTLVTVSS
VL: B1 VL
B9: 2/99 VH16/VL2 (antibody, V domains shown)
VH: B8 VH with Q116P
VL: B1 VL
B10: 2/99 VH17/VL2 (antibody, V domains shown)
VH: B8 VH with V70K, Q116P
VL: B1 VL
B11: 2/99 VH18/VL2 (antibody, V domains shown)
VH: B6 VH with E16Q, P40H, N60A
VL: B1 VL
B12: 2/99 VH19/VL2 (antibody, V domains shown)
VH: B8 VH with Q2S, L3M, E15Q, V36I, P39H, N59A, V77F
VL: B1 VL
B13: 2/99 VH20/VL2 (antibody, V domains shown)
VH: B8 VH with Q2S, L3M, E15Q, V36I, P39H, N59A
VL: B1 VL
B14: 2/99 VH21/VL2 (antibody, V domains shown)
VH: B8 VH with Q2S, L3M, E15Q, V36I, P39H, N59A, P60S, S61W, L62A
VL: B1 VL
B15: 2/99 VH22/VL2 (antibody, V domains shown)
VH: B8 VH with Q2S, L3M, E15Q, P39H, N59A, P60S, S61W, L62A
VL: B1 VL
B16: 2/99 VH1/VL3 (antibody, V domains shown)
VH: B1 VH with Q1V, S2Q, M3L, E4V, P116Q
VL: B1 VL with D1A, I2Y
B17: 2/99 VH2/VL3 (antibody, V domains shown)
VH: EVQLVETGGGLIQPGGSLRLSCAASGFSLSSYAMSWVRQAPGKGLEWVGYIWSGGSTDYADSVKGRFTISRDNSKNTLYLQMNSLRAEDTAVYYCARRYGTSYPDYGDANGFDPWGQGTLVTVSS
VL: B1 VL with D1A, I2Y
B18: 2/99 VH5/VL3 (antibody, V domains shown)
VH: B1 VH
VL: B1 VL with D1A, I2Y
B19: 2/99 VH6/VL3 (antibody, V domains shown)
VH: B1 VH with S2Q, M3L, E4V, V47I, P116Q
VL: B1 VL with D1A, I2Y
B20: 2/99 VH7/VL3 (antibody, V domains shown)
VH: B1 VH with S2Q, M3L, E4V, V47I, D60S, S61W, V62A, P116Q
VL: B1 VL with D1A, I2Y
B21: 2/99 VH8/VL3 (antibody, V domains shown)
VH: B4 VH
VL: B1 VL with D1A, I2Y
B22: 2/99 VH9/VL3 (antibody, V domains shown)
VH: B1 VH with S2Q, M3L, E4L, T6S, I11V, S27T, L28F, R96K, P116Q
VL: B1 VL with D1A, I2Y
B23: 2/99 VH11/VL3 (antibody, V domains shown)
VH: B1 VH with S2Q, M3L, E4L, T6S, I11V, P116Q
VL: B1 VL with D1A, I2Y
B24: 2/99 VH12/VL3 (antibody, V domains shown)
VH: B6 VH
VL: B1 VL with D1A, I2Y
B25: 2/99 VH13/VL3 (antibody, V domains shown)
VH: B6 VH with F78V
VL: B1 VL with D1A, I2Y
B26: 2/99 VH15/VL3 (antibody, V domains shown)
VH: B8 VH
VL: B1 VL with D1A, I2Y
B27: 2/99 VH16/VL3 (antibody, V domains shown)
VH: B8 VH with Q116P
VL: B1 VL with D1A, I2Y
B28: 2/99 VH17/VL3 (antibody, V domains shown)
VH: B8 VH with V70K, Q116P
VL: B1 VL with D1A, I2Y
B29: 2/99 VH18/VL3 (antibody, V domains shown)
VH: B6 VH with E16Q, P40H, N60A
VL: B1 VL with D1A, I2Y
B30: 2/99 VH19/VL3 (antibody, V domains shown)
VH: B8 VH with Q2S, L3M, E15Q, V36I, P39H, N59A, V77F
VL: B1 VL with D1A, I2Y
B31: 2/99 VH20/VL3 (antibody, V domains shown)
VH: B8 VH with Q2S, L3M, E15Q, V36I, P39H, N59A
VL: B1 VL with D1A, I2Y
B32: 2/99 VH21/VL3 (antibody, V domains shown)
VH: B8 VH with Q2S, L3M, E15Q, V36I, P39H, N59A, P60S, S61W, L62A
VL: B1 VL with D1A, I2Y
B33: 2/99 VH22/VL3 (antibody, V domains shown)
VH: B8 VH with Q2S, L3M, E15Q, P39H, N59A, P60S, S61W, L62A
VL: B1 VL with D1A, I2Y
B34: 2/99 VH23-DANG/VL3 (antibody, V domains shown)
VH: QSMQESGPGLVKPSQTLSLTCTVSGFSLSSYAMSWIRQHPGKGLEWIGYIWSGGSTDYASWAKSRVTISKTSTTVSLKLSSVTAADTAVYYCARRYGTSYPDYGDANGFDPWGQGTLVTVSS
VL: B1 VL with D1A, I2Y
B35: 2/99 VH1/VL4 (antibody, V domains shown)
VH: B1 VH with Q1V, S2Q, M3L, E4V, P116Q
VL: B1 VL with D1A, I2Y, N34S
B36: 2/99 VH2/VL4 (antibody, V domains shown)
VH: B17 VH
VL: B1 VL with D1A, I2Y, N34S

Target: T1, human transferrin receptor (recombinant, for surface plasmon resonance) (human, UniProt P02786 89-760)
T1 construct: also called huTfR; human transferrin receptor-biotinylated
T1 sequence (P02786 89-760 limits assumed): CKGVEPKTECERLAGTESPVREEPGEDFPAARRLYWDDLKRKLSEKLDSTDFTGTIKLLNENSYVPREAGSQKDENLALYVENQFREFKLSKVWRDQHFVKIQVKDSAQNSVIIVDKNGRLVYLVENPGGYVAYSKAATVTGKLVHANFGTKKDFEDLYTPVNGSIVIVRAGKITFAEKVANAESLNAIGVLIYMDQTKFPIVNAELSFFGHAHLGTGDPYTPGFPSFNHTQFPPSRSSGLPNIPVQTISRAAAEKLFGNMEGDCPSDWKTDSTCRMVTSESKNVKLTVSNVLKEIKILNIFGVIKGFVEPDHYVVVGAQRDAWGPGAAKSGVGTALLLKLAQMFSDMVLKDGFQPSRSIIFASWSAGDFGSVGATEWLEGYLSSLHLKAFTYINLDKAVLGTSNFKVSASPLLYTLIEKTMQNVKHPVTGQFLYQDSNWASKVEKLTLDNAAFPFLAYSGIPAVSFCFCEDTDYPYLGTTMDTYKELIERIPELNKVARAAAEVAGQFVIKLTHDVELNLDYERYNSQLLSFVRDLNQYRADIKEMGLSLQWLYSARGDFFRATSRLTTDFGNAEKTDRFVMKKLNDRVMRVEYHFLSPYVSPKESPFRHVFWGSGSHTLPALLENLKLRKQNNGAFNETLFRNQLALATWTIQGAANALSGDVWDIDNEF
Test: SPR 25C

Row | Binder | koff
1 | B1 | 0.00241 s⁻¹
2 | B2 | 0.00187 s⁻¹
3 | B3 | 0.00131 s⁻¹
4 | B4 | 0.00101 s⁻¹
5 | B5 | 0.00385 s⁻¹
6 | B6 | 0.00635 s⁻¹
7 | B7 | 0.00246 s⁻¹
8 | B8 | 0.00216 s⁻¹
9 | B9 | 0.00197 s⁻¹
10 | B10 | 0.00105 s⁻¹
11 | B11 | 0.00489 s⁻¹
12 | B12 | 0.00769 s⁻¹
13 | B13 | 0.00525 s⁻¹
14 | B14 | 0.00138 s⁻¹
15 | B15 | 0.00126 s⁻¹
16 | B16 | 0.00431 s⁻¹
17 | B17 | 0.00384 s⁻¹
18 | B18 | 0.00316 s⁻¹

Row | Binder | koff
19 | B19 | 0.00282 s⁻¹
20 | B20 | 0.00145 s⁻¹
21 | B21 | 0.001 s⁻¹
22 | B22 | 0.00417 s⁻¹
23 | B23 | 0.00565 s⁻¹
24 | B24 | 0.00586 s⁻¹
25 | B25 | 0.00277 s⁻¹
26 | B26 | 0.00207 s⁻¹
27 | B27 | 0.00173 s⁻¹
28 | B28 | 0.000843 s⁻¹
29 | B29 | 0.00665 s⁻¹
30 | B30 | 0.001 s⁻¹
31 | B31 | 0.00715 s⁻¹
32 | B32 | 0.00194 s⁻¹
33 | B33 | 0.00143 s⁻¹
34 | B34 | 0.000783 s⁻¹
35 | B35 | 0.00256 s⁻¹
36 | B36 | 0.00263 s⁻¹
